Experimental data: PMC7501309, “Structure and mechanism of a dehydratase/decarboxylase enzyme couple involved in polyketide β-methyl branch incorporation” (Scientific Reports, 2020)

Molecular target: the molecule itself
Assay: SEC; analytical Superdex 200 10/60; 100 µl at 0.5 mg/ml; 50 mM Tris-HCl, 150 mM NaCl, 5% glycerol, pH 7.5 (legend: 20 mM Tris-HCl, 150 mM NaCl, pH 7.5); elution compared with standards

Row | Protein | stoichiometry N
1 | PksH, bacillaene synthase dehydratase (wild type) (enzyme, Bacillus subtilis 168, UniProt P40805 1-259, looked up, PksH of Bacillus subtilis 168, amplified from genomic DNA and cloned into pET28a (NdeI/XhoI); The His tag is thrombin cleavable (pET28a); also called WT PksH; source: E. coli BL21(DE3), purified (HisTrap, Superdex 200 SEC)) MDLVTYQTIKVRFQASVCYITFHRPEANNTINDTLIEECLQVLNQCETSTVTVVVLEGLPEVFCFGADFQEIYQEMKRGRKQASSQEPLYDLWMKLQTGPYVTISHVRGKVNAGGLGFVSATDIAIADQTASFSLSELLFGLYPACVLPFLIRRIGRQKAHYMTLMTKPISVQEASEWGLIDAFDAESDVLLRKHLLRLRRLNKKGIAHYKQFMSSLDHQVSRAKATALTANQDMFSDPQNQMGIIRYVETGQFPWEDQ | 3
2 | PksI, bacillaene synthase decarboxylase (wild type) (enzyme, Bacillus subtilis 168, PksI of Bacillus subtilis 168, amplified from genomic DNA and cloned into pOPINF; the crystal models hold residues 1-249; The His tag is 3C protease cleavable (pOPINF); also called WT PksI; source: E. coli BL21(DE3), purified (HisTrap, Superdex 200 SEC)) MTHSVVELIEIESAIIQVKMQDRTHKNAFSQELTDDLIQAFEYIRQNPKYKAVILTGYDNYFASGGTQEGLLRIQQGLTKFTDDNLYSLALDCEIPVIAAMQGHGIGGGFVMGLFADIVILSRESVYTANFMKYGFTPGMGATFIVPKKLGFSLAQEILLNAGSYRGADLEKRGVPFKVLPRAEVLDYAVELAQELAEKPRNSLVTLKDHLVAPLRDQLPRVIEQELMMHEKTFHHEEVKSRIKGLYGN | 3
